# Data: the RNAGym collection of RNA variant scans (doi:10.1021/acssynbio.7b00057)
# B1: Pistol ribozyme (parent)
# chain: GGGUCGUUGUUCCAUAAUCGCGUGGAUAUGGCACGCAAGUUUCUACCGGGCACCGUAAAUGUCCGACUGGAGCCGUUCGGGCGGCUAUAAACAGACCUCAGGCCCGAAGCGUGGCGGCACCUGCCGCCGGUGGUAAAAAAGAUCGGAAGAGCACACGUCU
# Variants of: B1
# Assay: aptazyme ON/OFF ratio, guanine; higher = stronger switching; co-transcriptional cleavage with and without guanine
row,Variant,aptazyme ON/OFF ratio
1,U7A U8A G9U U10C U11A,1.29
2,U7A U8A G9U U10C U11C,1.04
3,U7A U8A G9U U10C U11G,1.33
4,U7A U8A G9C U11G C12A C13G,1.22
5,U7A U8A G9C U11G C12A C13U,1.23
6,U7A U8A G9C U11G C12A C13A,1.17
7,U7A U8A G9C U11C C12U C13G,1.11
8,U7A U8A G9C U11C C12U C13U,1.08
9,U7A U8A G9C U11C C12U C13A,1.13
10,U7A U8A G9U U10C U11A C13G,1.17
11,U7A U8A G9U U10C U11A C13A,1.22
12,U7A U8A G9U U10C U11A C13U,1.08
13,U7A U8A G9U U10C C12A C13A,1.11
14,U7A U8A G9U U10C C12A C13U,1.16
15,U7A U8A G9U U10C C12A C13G,1.15
16,U7A U8A G9C U11C C13G,1.07
17,U7A U8A G9C U11C C13U,1.07
18,U7A U8A G9C U11C C13A,1.08
19,U7A U8A G9U U10A U11G C13G,1.13
20,U7A U8A G9U U10A U11G C13U,1.19
21,U7A U8A G9U U10A U11G C13A,1.22
22,U7A U8A G9U U10A U11A C12G C13A,1.15
23,U7A U8A G9U U10A U11A C12G C13U,1.04
24,U7A U8A G9U U10A U11A C12G C13G,1.14

row,Variant,aptazyme ON/OFF ratio
1,U7A U8A G9U U10A U11G C12G C13U,1.36
2,U7A U8A G9U U10A U11G C12G C13G,1.23
3,U7A U8A G9U U10A U11G C12G C13A,1.23
4,U7A U8A G9U U10A C12G C13U,1.3
5,U7A U8A G9U U10A C12G C13A,1.2
6,U7A U8A G9U U10A C12G C13G,1.18
7,U7A U8A G9U U10C U11G C13U,1.14
8,U7A U8A G9U U10C U11G C13G,1.17
9,U7A U8A G9U U10C U11G C13A,1.1
10,U7A U8A G9U U10C U11C C12G C13U,1.04
11,U7A U8A G9U U10C U11C C12G C13A,1.07
12,U7A U8A G9U U10C U11C C12G C13G,1.07
13,U7A U8A G9C U11G C13G,1.1
14,U7A U8A G9C U11G C13U,1.31
15,U7A U8A G9C U11G C13A,1.22
16,U7A U8A G9U U10A U11A C12U C13G,1.22
17,U7A U8A G9U U10A U11A C12U C13U,1.22
18,U7A U8A G9U U10A U11A C12U C13A,1.2
19,U7A U8A G9U U10C U11A C12U C13G,1.18
20,U7A U8A G9U U10C U11A C12U C13U,1.22
21,U7A U8A G9U U10C U11A C12U C13A,1.14
22,U7A U8A G9U U10A U11G C12A,1.07
23,U7A U8A G9U U10A U11G C12U,1.46
24,U7A U8A G9U U10A U11G C12G,1.19

row,Variant,aptazyme ON/OFF ratio
1,U7A U8A G9U U10A U11A C12U,1.34
2,U7A U8A G9U U10A U11A C12G,1.23
3,U7A U8A G9U U10A U11A C12A,1.22
4,U7A U8A G9U U10A U11C C12G,1.18
5,U7A U8A G9U U10A U11C C12U,1.1
6,U7A U8A G9U U10A U11C C12A,1.22
7,U7A U8A G9U U10C C12U C13U,1.43
8,U7A U8A G9U U10C C12U C13G,1.15
9,U7A U8A G9U U10C C12U C13A,1.19
10,U7A U8A G9C U11G,1.47
11,U7A U8A G9U C12A,1.19
12,U7A U8A G9U C12U,1.32
13,U7A U8A G9U C12G,1.45
14,U7A U8A G9U U10C U11A C12U,1.23
15,U7A U8A G9U U10C U11A C12G,1.18
16,U7A U8A G9U U10C U11A C12A,1.22
17,U7A U8A G9U U10C U11G C12G C13U,1.12
18,U7A U8A G9U U10C U11G C12G C13G,1.21
19,U7A U8A G9U U10C U11G C12G C13A,1.15
20,U7A U8A G9U U10C U11C C13U,1.04
21,U7A U8A G9U U10C U11C C13A,1.04
22,U7A U8A G9U U10C U11C C13G,1.04
23,U7A U8A G9U C12A C13A,1.25
24,U7A U8A G9U C12A C13U,1.52

row,Variant,aptazyme ON/OFF ratio
1,U7A U8A G9U C12A C13G,1.25
2,U7A U8A G9U U10C U11C C12U C13U,1.08
3,U7A U8A G9U U10C U11C C12U C13A,1.02
4,U7A U8A G9U U10C U11C C12U C13G,1.02
5,U7A U8A G9U U10A U11A C13A,1.23
6,U7A U8A G9U U10A U11A C13U,1.27
7,U7A U8A G9U U10A U11A C13G,1.07
8,U7A U8A G9U U10A C12A C13G,1.24
9,U7A U8A G9U U10A C12A C13A,1.34
10,U7A U8A G9U U10A C12A C13U,1.15
11,U7A U8A G9U U10A U11C C12A C13U,1.14
12,U7A U8A G9U U10A U11C C12A C13A,1.11
13,U7A U8A G9U U10A U11C C12A C13G,1.08
14,U7A U8A G9C U11G C12G C13U,1.16
15,U7A U8A G9C U11G C12G C13G,1.32
16,U7A U8A G9C U11G C12G C13A,1.31
17,U7A U8A G9U U10A U11C C12G C13G,1.15
18,U7A U8A G9U U10A U11C C12G C13A,1.18
19,U7A U8A G9U U10A U11C C12G C13U,1.18
20,U7A U8A G9U U10C U11G C12A C13G,1.11
21,U7A U8A G9U U10C U11G C12A C13A,1.14
22,U7A U8A G9U U10C U11G C12A C13U,1.18
23,U7A U8A G9U U10A U11G C12A C13G,1.12
24,U7A U8A G9U U10A U11G C12A C13U,1.18

row,Variant,aptazyme ON/OFF ratio
1,U7A U8A G9U U10A U11G C12A C13A,1.07
2,U7A U8A G9U U10A C12U,1.16
3,U7A U8A G9U U10A C12A,1.27
4,U7A U8A G9U U10A C12G,1.41
5,U7A U8A G9U U10C U11A C12G C13U,1.16
6,U7A U8A G9U U10C U11A C12G C13A,1.25
7,U7A U8A G9U U10C U11A C12G C13G,1.17
8,U7A U8A G9U U10C U11A C12A C13U,1.23
9,U7A U8A G9U U10C U11A C12A C13A,1.2
10,U7A U8A G9U U10C U11A C12A C13G,1.14
11,U7A U8A G9U U10C C13U,1.2
12,U7A U8A G9U U10C C13G,1.03
13,U7A U8A G9U U10C C13A,1.08
14,U7A U8A G9U U10A U11G C12U C13U,1.27
15,U7A U8A G9U U10A U11G C12U C13A,1.25
16,U7A U8A G9U U10A U11G C12U C13G,1.15
17,U7A U8A G9U U10C C12A,1.17
18,U7A U8A G9U U10C C12U,1.24
19,U7A U8A G9U U10C C12G,1.43
20,U7A U8A G9U U10A U11C C13U,1.01
21,U7A U8A G9U U10A U11C C13A,1.08
22,U7A U8A G9U U10A U11C C13G,1.1
23,U7A U8A G9U C13U,1.21
24,U7A U8A G9U C13A,1.16

row,Variant,aptazyme ON/OFF ratio
1,U7A U8A G9U C13G,1.05
2,U7A U8A G9U U10C U11C C12A C13A,1.04
3,U7A U8A G9U U10C U11C C12A C13U,1.05
4,U7A U8A G9U U10C U11C C12A C13G,1.12
5,U7A U8A G9U U10A U11C C12U C13U,1.21
6,U7A U8A G9U U10A U11C C12U C13A,1.06
7,U7A U8A G9U U10A U11C C12U C13G,1.05
8,U7A U8A G9U U10C U11C C12A,1.04
9,U7A U8A G9U U10C U11C C12U,1.02
10,U7A U8A G9U U10C U11C C12G,1.06
11,U7A U8A G9U,2.12
12,U7A U8A G9C U11G C12U C13G,1.23
13,U7A U8A G9C U11G C12U C13A,1.37
14,U7A U8A G9C U11G C12U C13U,1.09
15,U7A U8A G9U U10C C12G C13G,1.35
16,U7A U8A G9U U10C C12G C13A,1.31
17,U7A U8A G9U U10C C12G C13U,1.4
18,U7A U8A G9U U10C U11G C12U C13G,1.07
19,U7A U8A G9U U10C U11G C12U C13U,1.22
20,U7A U8A G9U U10C U11G C12U C13A,1.15
21,U7A U8A G9U U10A C13A,1.43
22,U7A U8A G9U U10A C13U,1.24
23,U7A U8A G9U U10A C13G,1.08
24,U7A U8A G9U U10A,1.25

row,Variant,aptazyme ON/OFF ratio
1,U7A U8A G9U U10C,2.34
2,U7A U8A G9U U10G,1.61
3,U7A U8A G9U U10A C12U C13U,1.13
4,U7A U8A G9U U10A C12U C13G,1.23
5,U7A U8A G9U U10A C12U C13A,1.05
6,U7A U8A G9U U10C U11G C12G,1.15
7,U7A U8A G9U U10C U11G C12A,1.04
8,U7A U8A G9U U10C U11G C12U,1.22
9,U7A U8A G9U C12U C13U,1.22
10,U7A U8A G9U C12U C13A,1.34
11,U7A U8A G9U C12U C13G,1.16
12,U7A U8A G9U C12G C13A,1.19
13,U7A U8A G9U C12G C13U,1.47
14,U7A U8A G9U C12G C13G,1.27
15,U7A U8A G9U U10A U11A C12A C13A,1.35
16,U7A U8A G9U U10A U11A C12A C13U,1.18
17,U7A U8A G9U U10A U11A C12A C13G,1.2
18,U7A U8A G9U U10A U11G,1.38
19,U7A U8A G9U U10A U11A,1.44
20,U7A U8A G9U U10A U11C,1.08
21,U7A U8A G9C U11G C12G,1.4
22,U7A U8A G9C U11G C12A,1.1
23,U7A U8A G9C U11G C12U,1.71
